# Experimental data as given in US20100196361A1, “Method of inhibition of vascular development using an antibody” (DYAX CORP., priority 2003, published 2010).
# Columns and labels:
# Tie1 [1] = biological target: T1, Tie1 (Homo sapiens, UniProt P35590); assay: Tie1 phosphorylation assay; type: cell-based; design: an expression vector containing a V5-tagged full length Tie1 cDNA; expressed in transfected cells; host or cells: COS1
# Procedure: Tie1 phosphorylation assay. COS1 cells were transfected with pcDNA3-Tie1-V5. After 24 h of transfection, the cells were serum starved for 8 h and then treated with E3 IgG. For the Tie1 phosphorylation assay, HDMVECs were cultured on 10 cm dishes to near confluence, starved (8-16 h) in serum free medium and stimulated as indicated. After the stimulations, the cells were lysed in lysis buffer (RIPA-DOC: 50 mM Tris-HCl pH 8.0, 150 mM NaCl, 1% Triton-X-100, 0.1% SDS, 0.5% DOC, 10 mM EDTA, supplemented with aprotinin, leupeptin, PMSF and sodium vanadate). Clarified lysates from transfected COS 1 cells or HDMVECs were immunoprecipitated with anti-V5 or anti-Tie1 B9, respectively. Proteins were separated by SDS-PAGE, transferred to nitrocellulose and immunoblotted using the anti-phosphotyrosine and anti-Tie1 (R&D systems) antibodies.
# To test if the E3 IgG binding to the extracellular region of Tie1 induces autophosphorylation of Tie1, the Tie1 receptor phosphorylation level in response to E3 IgG treatment was studied in transiently transfected COS 1 cells and human primary endothelial cells. COS 1 cells were transfected with an expression vector containing a V5-tagged full length Tie1 cDNA, and, after serum starvation, the cells were treated with E3 IgG (200 ng/ml). Cell lysates were extracted at several time points and Tie1 was immunoprecipitated with anti-V5 followed by western blotting using anti-phosphotyrosine and anti-Tie1 antibodies. […] To determine if E3 IgG induces Tie1 phosphorylation in primary endothelial cells, HDMVEC cells were serum starved and stimulated with several concentrations of E3 for 60 min. […] Also higher concentrations of E3 (500-1000 ng/ml) induced Tie1 phosphorylation but the response was more rapid and was most prominent after 5 min of stimulation.
# To study the kinetics of E3 IgG induced Tie1 activation, cells were stimulated with E3 IgG (200 ng/ml) and receptor phosphorylation was studied at various time points. Tie1 phosphorylation was highest 15-30 min after E3 IgG treatment but phosphorylation persisted for up to 1 h.
# Tie1 [2] = biological target: T1, Tie1; assay: Immunoprecipitation of Tie1 from HUVEC and platelet lysates; type: binding; conditions: for immunoprecipitation of Tie1 from platelets: activated and inactivated platelets
# Procedure: The conclusion from this study was that platelets represent a large pool of Tie1 immunoreactivity which could present a problem for development of Tie1 as a therapeutic target. […] Both activated and inactivated platelets were tested. Anti-Tie1 antibodies B2, D11, E3, the goat polyclonal AF619 (R&D) and negative control antibodies anti-FITC and anti-Streptavidin were used. HUVECS were retrieved from culture dishes by trypsinization and platelets were prepared with the platelet GelSep kit (Biocytex, Marseille, France) kit according to the guidelines of the manufacturer. Per immunoprecipitation experiment 3-5×10^6 and 3×10^8 cells platelets were used for each antibody tested. Platelets and cells were washed with PBS and spun down at 1400 rpm for 4 minutes and supernatant was removed. Then cells were lysed in 1 ml lysis buffer containing 50 mM Tris HCL pH 7.5, 150 mM NaCl, 0.5% Deoxycholic acid (DOC) and 0.5% NP-40 for 5 minutes. The lysed cells were spin down for 10 minutes at 14.000 rpm and 5 μg/ml antibody was added to the supernatant and incubated at 4° C. on a rotator. 100 μl/sample protein A beads (Uppsala, Sweden) were washed 3 times with lysis buffer (centrifugation speed: 15 seconds, 2000 rpm) then cell lysates incubated with antibody were added for 30 minutes 4° C. Then beads were washed three times with washing buffer containing 50 mM Tris HCL pH 7.5, 400 mM NaCl, 0.5% DOC, 0.5% NP-40. Finally, beads are spun down and the pellets was resuspended in an equal amount in sample buffer to perform SDS-page and Western blotting. In Western blotting Tie1 was detected with the polyclonal goat anti-Tie1 antibody.
# It has been reported that Tie1 is expressed on platelets (Tsiamis et al. (2000) J. Vasc. Res. 37(6):437). The possibility of platelet immunoreactivity with the E3 anti-Tie1 antibody was investigated by FACs analysis and immunoprecipitation studies. […] In addition, the effect of DX-2200 and DX-2210 on platelet agglutination and aggregation was investigated. […]
# T1 sequence (P35590 22-1138): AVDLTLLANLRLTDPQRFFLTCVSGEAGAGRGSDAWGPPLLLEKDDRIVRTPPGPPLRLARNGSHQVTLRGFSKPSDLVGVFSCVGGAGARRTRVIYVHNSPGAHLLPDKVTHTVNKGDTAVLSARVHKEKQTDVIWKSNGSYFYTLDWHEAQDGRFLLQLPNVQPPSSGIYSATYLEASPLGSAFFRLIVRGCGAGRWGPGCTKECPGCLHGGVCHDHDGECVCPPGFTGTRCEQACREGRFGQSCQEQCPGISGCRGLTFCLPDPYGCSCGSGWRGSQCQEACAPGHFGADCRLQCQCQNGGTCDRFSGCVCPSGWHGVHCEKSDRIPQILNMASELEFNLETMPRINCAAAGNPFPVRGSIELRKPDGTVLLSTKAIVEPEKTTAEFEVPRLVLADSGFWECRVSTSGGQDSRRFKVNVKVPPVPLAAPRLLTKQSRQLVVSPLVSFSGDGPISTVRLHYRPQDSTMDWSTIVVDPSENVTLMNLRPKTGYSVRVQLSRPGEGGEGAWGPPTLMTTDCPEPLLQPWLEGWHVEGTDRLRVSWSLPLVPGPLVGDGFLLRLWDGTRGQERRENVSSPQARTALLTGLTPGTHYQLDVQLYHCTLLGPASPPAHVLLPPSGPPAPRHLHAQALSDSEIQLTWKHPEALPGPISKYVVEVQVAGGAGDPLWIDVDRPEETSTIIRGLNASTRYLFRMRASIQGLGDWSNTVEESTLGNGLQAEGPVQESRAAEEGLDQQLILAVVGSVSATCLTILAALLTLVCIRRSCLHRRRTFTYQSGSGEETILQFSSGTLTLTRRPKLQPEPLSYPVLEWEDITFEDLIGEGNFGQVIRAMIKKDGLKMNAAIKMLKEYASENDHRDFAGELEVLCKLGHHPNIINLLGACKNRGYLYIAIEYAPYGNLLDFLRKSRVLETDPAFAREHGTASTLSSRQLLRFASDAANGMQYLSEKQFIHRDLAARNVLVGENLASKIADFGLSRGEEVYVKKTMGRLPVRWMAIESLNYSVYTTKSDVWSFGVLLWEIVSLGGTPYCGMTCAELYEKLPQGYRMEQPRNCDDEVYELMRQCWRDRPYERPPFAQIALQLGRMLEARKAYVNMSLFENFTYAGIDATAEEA
molecule,measurement,setting,value
"E3: human anti-Tie1 antibody from phage Fab library, reformatted as IgG; HC variable SEQ ID NO:114, LC variable SEQ ID NO:116 (antibody, V domains shown, IgG constant regions; Synthetically generated peptide) VH: EVQLLESGGGLVQPGGSLRLSCAASGFTFSMYGMVWVRQAPGKGLEWVSVISPSGGNTGYADSVKGRFTISRDNSKNTLYLQVNSLRAEDTAVYYCARAPRGYSYGYYYWGQGTLVTVSSASTKGPSVFPLAPSSKSTSGG VL: DIQMTQSPLSLSASVGDRVTITCRASQGIGHYLAWYQQKPGKVPKLLIYTASTLQSGVPSRFSGSGSGTDFTLTINSLQPEDVATYYCQQFNSYPHTFGQGTRLDIK",persistence of Tie1 phosphorylation,Tie1 [1]; 200 ng/ml,up to 1 h
same,time of highest Tie1 phosphorylation,Tie1 [1]; 200 ng/ml,15 to 30 min
same,concentration giving receptor phosphorylation,"Tie1 [1]; HDMVEC, serum starved, 60 min stimulation",50 to 200 ng/mL
same,time of most prominent Tie1 phosphorylation,"Tie1 [1]; HDMVEC, 500-1000 ng/ml",5 min
same,immunoprecipitation of Tie1 from HUVEC,"Tie1 [2]; 5 μg/ml antibody, detection with polyclonal goat anti-Tie1",able to immunoprecipitate Tie1 in HUVEC
same,immunoprecipitation of Tie1 from platelets,Tie1 [2],not in platelets
same,immunoprecipitation of Tie1 from platelets,Tie1 [2]; listed as DX-2200,nor did it immunoprecipitate Tie1 from platelet extracts
